In paper PMC6525047:

How the values were obtained:
[1] = molecular target: T1, RIG-IdeltaN;RIPLET (human;human, UniProt O95786;Q8IUD6 230-925;1-432, |); experiment: EMSA
T1 sequence 1: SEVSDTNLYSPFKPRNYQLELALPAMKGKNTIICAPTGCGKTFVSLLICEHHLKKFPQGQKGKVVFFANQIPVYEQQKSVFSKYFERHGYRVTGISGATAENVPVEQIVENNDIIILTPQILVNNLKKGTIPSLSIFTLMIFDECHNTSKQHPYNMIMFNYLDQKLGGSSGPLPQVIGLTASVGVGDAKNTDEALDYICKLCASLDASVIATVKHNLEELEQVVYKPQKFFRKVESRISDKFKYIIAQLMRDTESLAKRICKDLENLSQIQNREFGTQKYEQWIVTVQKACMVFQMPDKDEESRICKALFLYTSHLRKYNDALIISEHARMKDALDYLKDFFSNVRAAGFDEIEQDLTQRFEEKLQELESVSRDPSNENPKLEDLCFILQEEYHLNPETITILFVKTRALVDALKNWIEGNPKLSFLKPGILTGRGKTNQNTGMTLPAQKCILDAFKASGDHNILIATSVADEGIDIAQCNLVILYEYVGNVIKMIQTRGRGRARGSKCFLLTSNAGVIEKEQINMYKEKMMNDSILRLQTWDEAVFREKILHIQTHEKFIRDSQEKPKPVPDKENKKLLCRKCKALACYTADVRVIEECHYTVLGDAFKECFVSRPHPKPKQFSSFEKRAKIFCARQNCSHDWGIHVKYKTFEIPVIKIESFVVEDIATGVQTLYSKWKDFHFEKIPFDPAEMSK
T1 sequence 2: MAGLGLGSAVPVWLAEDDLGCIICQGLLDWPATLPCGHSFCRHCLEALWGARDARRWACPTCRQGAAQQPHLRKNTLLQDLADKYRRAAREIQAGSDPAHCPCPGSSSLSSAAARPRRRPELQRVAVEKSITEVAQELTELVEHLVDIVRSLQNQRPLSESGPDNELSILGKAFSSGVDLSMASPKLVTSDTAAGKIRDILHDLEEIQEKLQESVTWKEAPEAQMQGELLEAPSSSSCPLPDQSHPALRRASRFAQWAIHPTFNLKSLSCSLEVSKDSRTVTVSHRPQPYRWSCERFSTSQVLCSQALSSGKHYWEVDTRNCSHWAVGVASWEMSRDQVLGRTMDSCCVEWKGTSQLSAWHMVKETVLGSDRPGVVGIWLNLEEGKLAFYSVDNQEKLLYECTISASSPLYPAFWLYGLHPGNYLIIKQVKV

[2] = molecular target: T2, RIPLET (human), Q8IUD6; experiment: SEC-MALS; conditions: remark: other sources report otherwise
T2 chain: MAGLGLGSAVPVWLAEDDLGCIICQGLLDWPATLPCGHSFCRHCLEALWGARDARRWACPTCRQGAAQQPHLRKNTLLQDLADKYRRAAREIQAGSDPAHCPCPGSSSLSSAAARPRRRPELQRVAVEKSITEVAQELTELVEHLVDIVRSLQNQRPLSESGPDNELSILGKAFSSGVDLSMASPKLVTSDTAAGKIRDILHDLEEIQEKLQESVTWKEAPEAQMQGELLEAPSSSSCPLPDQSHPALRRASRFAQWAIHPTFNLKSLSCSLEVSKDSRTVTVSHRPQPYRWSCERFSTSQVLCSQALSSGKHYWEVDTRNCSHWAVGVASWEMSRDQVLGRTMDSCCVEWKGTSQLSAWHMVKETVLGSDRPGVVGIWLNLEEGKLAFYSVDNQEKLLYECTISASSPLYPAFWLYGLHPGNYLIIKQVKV

| Binder | binding result [1] | stoichiometry N [2] |
| --- | --- | --- |
| 21 bp dsRNA (dsRNA, 5'ppp) RNA 1: GAGUCACGACGUUGUAAAAAA RNA 2: UUUUUUACAACGUCGUGACUC | binds | – |
| RIPLET, Q8IUD6 1-432 (enzyme) MAGLGLGSAVPVWLAEDDLGCIICQGLLDWPATLPCGHSFCRHCLEALWGARDARRWACPTCRQGAAQQPHLRKNTLLQDLADKYRRAAREIQAGSDPAHCPCPGSSSLSSAAARPRRRPELQRVAVEKSITEVAQELTELVEHLVDIVRSLQNQRPLSESGPDNELSILGKAFSSGVDLSMASPKLVTSDTAAGKIRDILHDLEEIQEKLQESVTWKEAPEAQMQGELLEAPSSSSCPLPDQSHPALRRASRFAQWAIHPTFNLKSLSCSLEVSKDSRTVTVSHRPQPYRWSCERFSTSQVLCSQALSSGKHYWEVDTRNCSHWAVGVASWEMSRDQVLGRTMDSCCVEWKGTSQLSAWHMVKETVLGSDRPGVVGIWLNLEEGKLAFYSVDNQEKLLYECTISASSPLYPAFWLYGLHPGNYLIIKQVKV | – | 2 |
